Results from article PMC11316107, “PPTC7 antagonizes mitophagy by promoting BNIP3 and NIX degradation via SCF^FBXL4” (EMBO Reports, 2024).
Changes are numbered by the printed parent chain.

T1: PPTC7 (31-304), wild type (human, UniProt Q8NI37 31-304)
T1 construct: human PPTC7, residues 31-304, from pGEX-6P-2 GST-PPTC7(31-304); GST removed with PreScission protease; assayed with 10 mM MnCl2 in the buffer; also called PPTC7 + Mn2+; Protein Phosphatase Targeting COQ7; source: E. coli BL21(DE3), purified (glutathione-sepharose, PreScission cleavage, Superdex 75 gel filtration); not shown: GST, N-terminal, cleaved
T1 sequence (looked up): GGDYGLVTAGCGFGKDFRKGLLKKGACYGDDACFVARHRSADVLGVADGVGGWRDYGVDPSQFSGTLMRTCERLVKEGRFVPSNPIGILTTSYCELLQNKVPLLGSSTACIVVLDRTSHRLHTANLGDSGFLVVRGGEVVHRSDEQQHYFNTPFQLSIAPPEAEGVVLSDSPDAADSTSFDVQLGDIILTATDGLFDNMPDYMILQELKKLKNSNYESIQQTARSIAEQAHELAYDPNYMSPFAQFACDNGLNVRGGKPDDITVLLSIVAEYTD

T2: PPTC7 (31-304) D290N (human, UniProt Q8NI37 31-304, D290N)
T2 construct: human PPTC7, residues 31-304, from pGEX-6P-2 GST-PPTC7(31-304)(D290N); The purification is described for GST-PPTC7 (31-304); also called PPTC7 D290N; PPTC7-D290N; source: E. coli BL21(DE3), purified (glutathione-sepharose, PreScission cleavage, Superdex 75 gel filtration); not shown: GST, N-terminal, cleaved
T2 sequence (looked up): T1 sequence (looked up) with D260N

T3: recombinant PPTC7 (31-304) wild type (human, UniProt Q8NI37 31-304)
T3 construct: PPTC7, human, residues 31-304; pGEX-6P-2 vector; also called PPTC7 wild-type; GST-PPTC7(31-304); source: E. coli BL21(DE3), purified (glutathione-sepharose, PreScission cleavage, Superdex 75)
T3 sequence (looked up): T1 sequence (looked up)

B1: BNIP3(N113-R139) peptide (peptide)
peptide: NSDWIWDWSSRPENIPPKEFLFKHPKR
notes: human BNIP3, residues N113-R139 (Q12983, 194 aa); also called BNIP3 peptide; source: synthetic peptide
B2: BNIP3L(A138-R163) peptide (peptide)
peptide: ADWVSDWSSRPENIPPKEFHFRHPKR
notes: human NIX (BNIP3L), residues A138-R163; also called NIX; NIX peptide; source: synthetic peptide
B3: BNIP3 peptide (N113-R139) (peptide)
peptide: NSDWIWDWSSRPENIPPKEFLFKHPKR
notes: also called BNIP3(N113-R139); source: synthetic peptide
B4: NIX peptide (A138-R163) (peptide)
peptide: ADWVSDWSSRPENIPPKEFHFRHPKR
notes: also called BNIP3L(A138-R163); source: synthetic peptide

Columns and labels:
Conditions in all cases: both partners purified
[1] = target: T1, PPTC7 (31-304), wild type; assay: ITC; 500 µM peptide (syringe) titrated into 25 µM PPTC7 (cell); 25 °C; 50 mM HEPES pH 7.5, 300 mM NaCl, 10 mM MnCl2, 2 mM β-mercaptoethanol; MicroCal PEAQ-ITC
PPTC7 (31-304) D290N = target: T2, PPTC7 (31-304) D290N; assay: as above
[2] = target: T3, recombinant PPTC7 (31-304) wild type; assay: ITC; 500 µM peptide titrated into 25 µM PPTC7; 25 °C; 50 mM HEPES pH 7.5, 300 mM NaCl, 10 mM MnCl2, 2 mM β-mercaptoethanol; MicroCal PEAQ-ITC

Row | Binder | stoichiometry N [1] | Kd (PPTC7 (31-304) D290N) [µM] | stoichiometry N (PPTC7 (31-304) D290N) | Kd [2] [µM]
1 | B1 | 1 |  |  | 
2 | B2 | 1 | 35.9 ± 1.09 | 1 | 
3 | B3 |  |  |  | 20.1
4 | B4 |  |  |  | 37.5
